# Assay results taken from publication PMC7985572, “Backbone chemical shift spectral assignments of SARS coronavirus-2 non-structural protein nsp9” (Biomolecular Nmr Assignments, 2021).
# Target: the molecule itself
# Experiment: SEC
protein,measurement,value
"SARS-CoV-2 non-structural protein 9 (nsp9) (natural protein, also called non-structural protein nsp9; sample A; not shown: His6, N-terminal, cleaved; GST, N-terminal, cleaved) GAMGNNELSPVALRQMSCAAGTTQTACTDDNALAYYNTTKGGRFVLALLSDLQDLKWARFPKSDGTGTIYTELEPPCRFVTDTPKGPKVKYLYFIKGLNNLNRGMVLGSLAATVRLQ",stoichiometry N,2
